From article doi:10.1101/2025.04.23.650334

T1: GdFen1 (Giardia duodenalis, UniProt A8B672 1-361)
T1 sequence: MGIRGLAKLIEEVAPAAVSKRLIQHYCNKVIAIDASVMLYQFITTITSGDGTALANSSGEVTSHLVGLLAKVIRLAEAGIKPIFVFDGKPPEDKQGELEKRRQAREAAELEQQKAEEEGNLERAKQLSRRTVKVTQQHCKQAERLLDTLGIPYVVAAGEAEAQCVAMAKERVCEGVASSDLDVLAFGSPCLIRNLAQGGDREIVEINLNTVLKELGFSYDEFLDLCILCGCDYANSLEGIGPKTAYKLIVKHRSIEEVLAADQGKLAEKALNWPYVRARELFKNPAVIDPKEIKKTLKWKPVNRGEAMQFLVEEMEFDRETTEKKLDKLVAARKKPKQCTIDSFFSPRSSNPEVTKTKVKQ


Target: T1, GdFen1
Assay: EMSA

| Binder | binding result |
| --- | --- |
| Flap probe (structured_DNA) DNA 1: CGCGGATCCCACTACGCCGATTTTTTTTTTTTTTTTTTTTACGTATGCCACGAATTCGCG DNA 2: CGCGAATTCGTGGCATACGTAAAAAAAAAAAAAAAAAAAAGAGATGCGAGTCTAGACCGG DNA 3: CCGGTCTAGACTCGCATCTC | binds |
| Bubble probe (structured_DNA) DNA 1: CGCGGATCCCACTACGCCGATTTTTTTTTTTTTTTTTTTTACGTATGCCACGAATTCGCG DNA 2: CGCGAATTCGTGGCATACGTTTTTTTTTTTTTTTTTTTTTTCGGCGTAGTGGGATCCGCG | binds |
